Source: article doi:10.1101/2024.04.26.591257 (bioRxiv, 2024)

Legend:
[1] = biological target: WOX5-mV(N)/PLT3-mV(C) heterodimer (split mVenus donor) (Arabidopsis thaliana) (UniProt Q8H1D2); assay: split reporter
[2] = biological target: BRAVO-mV (BRASSINOSTEROIDS AT VASCULAR AND ORGANIZING CENTRE fused to mVenus) (Arabidopsis thaliana) (UniProt Q6R053); assay: FRET or BRET
[3] = biological target: T1, TPL-mV (TOPLESS fused to mVenus) (Arabidopsis thaliana, UniProt Q94AI7 1-1131); assay: FRET or BRET
T1 sequence (looked up): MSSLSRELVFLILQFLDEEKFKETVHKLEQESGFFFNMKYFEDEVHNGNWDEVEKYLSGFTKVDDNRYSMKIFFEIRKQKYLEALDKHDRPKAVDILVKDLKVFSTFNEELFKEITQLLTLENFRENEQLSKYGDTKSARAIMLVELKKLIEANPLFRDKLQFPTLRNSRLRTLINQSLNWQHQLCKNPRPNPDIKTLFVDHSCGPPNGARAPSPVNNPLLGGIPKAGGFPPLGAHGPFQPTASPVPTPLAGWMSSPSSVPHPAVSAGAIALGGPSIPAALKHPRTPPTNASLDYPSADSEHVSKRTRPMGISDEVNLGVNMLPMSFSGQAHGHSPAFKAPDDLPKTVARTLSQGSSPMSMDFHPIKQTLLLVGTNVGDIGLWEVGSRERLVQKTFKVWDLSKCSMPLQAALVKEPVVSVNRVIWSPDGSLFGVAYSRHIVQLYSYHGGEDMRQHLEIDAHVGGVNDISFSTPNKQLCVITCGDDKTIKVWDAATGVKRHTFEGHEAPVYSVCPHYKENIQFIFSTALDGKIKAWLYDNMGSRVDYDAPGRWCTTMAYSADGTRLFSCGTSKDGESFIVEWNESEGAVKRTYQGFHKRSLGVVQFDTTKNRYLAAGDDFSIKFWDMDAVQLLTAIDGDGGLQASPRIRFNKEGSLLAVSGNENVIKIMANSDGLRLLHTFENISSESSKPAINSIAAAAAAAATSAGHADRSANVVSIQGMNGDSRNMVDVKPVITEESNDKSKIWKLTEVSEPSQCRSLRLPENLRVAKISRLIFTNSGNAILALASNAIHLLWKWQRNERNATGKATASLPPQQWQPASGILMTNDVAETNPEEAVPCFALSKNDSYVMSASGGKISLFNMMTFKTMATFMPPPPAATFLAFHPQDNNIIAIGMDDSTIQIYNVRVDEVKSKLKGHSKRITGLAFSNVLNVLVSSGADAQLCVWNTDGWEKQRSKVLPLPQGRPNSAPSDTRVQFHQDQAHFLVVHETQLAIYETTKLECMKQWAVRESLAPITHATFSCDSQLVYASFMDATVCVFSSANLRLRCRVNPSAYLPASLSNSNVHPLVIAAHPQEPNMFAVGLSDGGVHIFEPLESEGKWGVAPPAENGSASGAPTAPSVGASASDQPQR

[4] = biological target: BES1D-mV (BES1D fused to mVenus) (Arabidopsis thaliana) (UniProt Q9LN63); assay: FRET or BRET
[5] = biological target: T2, WOX5-mV(N)/PLT3-mV(C) heterodimer (split mVenus donor) (Arabidopsis thaliana, UniProt Q8H1D2 1-182; Q52QU2 1-581); assay: split reporter
T2 sequence (looked up) 1: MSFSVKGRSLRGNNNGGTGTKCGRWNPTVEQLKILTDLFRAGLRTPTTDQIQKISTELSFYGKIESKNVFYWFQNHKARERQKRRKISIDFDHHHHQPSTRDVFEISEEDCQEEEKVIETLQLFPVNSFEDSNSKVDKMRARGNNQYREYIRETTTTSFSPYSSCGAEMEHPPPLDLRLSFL
T2 sequence (looked up) 2: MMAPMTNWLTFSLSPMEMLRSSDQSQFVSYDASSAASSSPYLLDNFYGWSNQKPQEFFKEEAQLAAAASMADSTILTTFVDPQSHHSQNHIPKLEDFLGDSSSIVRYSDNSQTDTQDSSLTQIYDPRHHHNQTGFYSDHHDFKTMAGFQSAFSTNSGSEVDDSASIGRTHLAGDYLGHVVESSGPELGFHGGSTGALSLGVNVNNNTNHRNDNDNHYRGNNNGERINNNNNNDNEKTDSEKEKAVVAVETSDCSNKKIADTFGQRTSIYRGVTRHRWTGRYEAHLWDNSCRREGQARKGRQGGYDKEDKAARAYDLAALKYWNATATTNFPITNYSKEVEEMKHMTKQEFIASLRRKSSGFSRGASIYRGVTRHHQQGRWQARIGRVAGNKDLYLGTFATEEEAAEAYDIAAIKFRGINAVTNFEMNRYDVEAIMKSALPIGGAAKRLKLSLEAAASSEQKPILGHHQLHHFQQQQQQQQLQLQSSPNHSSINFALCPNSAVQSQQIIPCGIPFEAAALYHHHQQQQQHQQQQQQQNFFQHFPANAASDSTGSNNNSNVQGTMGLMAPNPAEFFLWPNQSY

[6] = biological target: T3, BRAVO-mV (BRASSINOSTEROIDS AT VASCULAR AND ORGANIZING CENTRE fused to mVenus) (Arabidopsis thaliana, UniProt Q6R053 1-323); assay: FRET or BRET
T3 sequence (looked up): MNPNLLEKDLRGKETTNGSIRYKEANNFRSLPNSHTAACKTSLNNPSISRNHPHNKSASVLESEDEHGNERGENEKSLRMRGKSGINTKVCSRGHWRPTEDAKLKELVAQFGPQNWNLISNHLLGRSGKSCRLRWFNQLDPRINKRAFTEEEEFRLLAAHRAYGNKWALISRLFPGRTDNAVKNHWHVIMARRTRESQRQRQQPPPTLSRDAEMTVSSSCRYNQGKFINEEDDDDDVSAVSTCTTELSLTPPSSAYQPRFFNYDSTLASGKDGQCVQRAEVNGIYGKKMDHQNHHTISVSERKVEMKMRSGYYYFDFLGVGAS

[7] = biological target: T4, BRAVO-mV(N)/PLT3-mV(C) heterodimer (split mVenus donor) (Arabidopsis thaliana, UniProt Q6R053 1-323; Q52QU2 1-581); assay: split reporter
T4 sequence (looked up) 1: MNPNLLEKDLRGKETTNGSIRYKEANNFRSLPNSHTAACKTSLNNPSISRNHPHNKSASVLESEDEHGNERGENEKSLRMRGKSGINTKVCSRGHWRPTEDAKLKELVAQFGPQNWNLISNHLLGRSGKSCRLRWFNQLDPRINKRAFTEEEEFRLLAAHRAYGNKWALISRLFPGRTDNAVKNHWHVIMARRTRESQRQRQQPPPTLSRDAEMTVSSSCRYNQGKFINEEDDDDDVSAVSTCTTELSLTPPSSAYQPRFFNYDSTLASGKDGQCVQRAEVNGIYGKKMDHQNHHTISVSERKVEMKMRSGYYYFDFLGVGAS
T4 sequence (looked up) 2: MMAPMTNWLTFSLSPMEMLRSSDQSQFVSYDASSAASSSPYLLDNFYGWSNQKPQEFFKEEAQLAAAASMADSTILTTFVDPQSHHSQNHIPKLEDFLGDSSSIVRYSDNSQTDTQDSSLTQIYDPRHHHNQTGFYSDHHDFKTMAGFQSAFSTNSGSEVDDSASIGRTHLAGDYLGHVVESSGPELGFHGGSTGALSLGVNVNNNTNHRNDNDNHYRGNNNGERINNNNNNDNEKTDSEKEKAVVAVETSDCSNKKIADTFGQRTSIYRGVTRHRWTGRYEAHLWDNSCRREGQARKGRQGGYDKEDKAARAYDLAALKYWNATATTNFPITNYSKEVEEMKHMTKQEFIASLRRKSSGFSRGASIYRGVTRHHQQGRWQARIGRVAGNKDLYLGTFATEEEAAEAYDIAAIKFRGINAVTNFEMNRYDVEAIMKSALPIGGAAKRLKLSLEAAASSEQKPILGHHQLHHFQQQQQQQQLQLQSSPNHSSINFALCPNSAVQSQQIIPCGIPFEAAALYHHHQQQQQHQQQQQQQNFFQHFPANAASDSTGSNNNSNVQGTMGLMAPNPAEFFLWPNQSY

Sequence of BES1D-mCh (BRI1-EMS-SUPPRESSOR 1, BES1D form, fused to mCherry) (Q9LN63 whole entry, the tested form may be a part): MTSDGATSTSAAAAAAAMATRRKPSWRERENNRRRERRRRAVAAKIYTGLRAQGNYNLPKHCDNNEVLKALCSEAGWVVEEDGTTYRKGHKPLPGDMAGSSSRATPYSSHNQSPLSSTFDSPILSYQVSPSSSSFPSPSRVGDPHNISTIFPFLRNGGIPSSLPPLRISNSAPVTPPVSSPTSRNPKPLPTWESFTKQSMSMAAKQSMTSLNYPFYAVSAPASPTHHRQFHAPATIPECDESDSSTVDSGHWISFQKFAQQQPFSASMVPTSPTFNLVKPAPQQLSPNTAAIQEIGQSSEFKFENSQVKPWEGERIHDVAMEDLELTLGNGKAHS
Sequence of BES1D-mV (BES1D fused to mVenus) (Arabidopsis thaliana) (Q9LN63 whole entry, the tested form may be a part): as above

| binding [%] (FRET-FLIM) [2] | binding [%] (BiFC-FRET) [5] | binding [%] (FRET-FLIM) [6] | binding [%] (BiFC-FRET) [7] | Molecule | also measured |
| --- | --- | --- | --- | --- | --- |
| 11.7% | – | – | – | PLT3ΔPrD-mCh (PLT3 with its prion-like domains deleted, fused to mCherry) (from UniProt Q9ZNS0 1-508) (natural protein) | – |
| – | – | 22.4 ± 14.1% | 29.8 ± 10.6% | WOX5-mCh (WUSCHEL-RELATED HOMEOBOX 5 fused to mCherry) (natural protein, Arabidopsis thaliana, UniProt Q8H1D2 1-182, looked up) MSFSVKGRSLRGNNNGGTGTKCGRWNPTVEQLKILTDLFRAGLRTPTTDQIQKISTELSFYGKIESKNVFYWFQNHKARERQKRRKISIDFDHHHHQPSTRDVFEISEEDCQEEEKVIETLQLFPVNSFEDSNSKVDKMRARGNNQYREYIRETTTTSFSPYSSCGAEMEHPPPLDLRLSFL | – |
| – | 23.3 ± 8.3% | 26.7 ± 9.8% | 21.1 ± 8.3% | TPL-mCh (TOPLESS fused to mCherry) (natural protein, Arabidopsis thaliana, UniProt Q94AI7 1-1131, looked up) MSSLSRELVFLILQFLDEEKFKETVHKLEQESGFFFNMKYFEDEVHNGNWDEVEKYLSGFTKVDDNRYSMKIFFEIRKQKYLEALDKHDRPKAVDILVKDLKVFSTFNEELFKEITQLLTLENFRENEQLSKYGDTKSARAIMLVELKKLIEANPLFRDKLQFPTLRNSRLRTLINQSLNWQHQLCKNPRPNPDIKTLFVDHSCGPPNGARAPSPVNNPLLGGIPKAGGFPPLGAHGPFQPTASPVPTPLAGWMSSPSSVPHPAVSAGAIALGGPSIPAALKHPRTPPTNASLDYPSADSEHVSKRTRPMGISDEVNLGVNMLPMSFSGQAHGHSPAFKAPDDLPKTVARTLSQGSSPMSMDFHPIKQTLLLVGTNVGDIGLWEVGSRERLVQKTFKVWDLSKCSMPLQAALVKEPVVSVNRVIWSPDGSLFGVAYSRHIVQLYSYHGGEDMRQHLEIDAHVGGVNDISFSTPNKQLCVITCGDDKTIKVWDAATGVKRHTFEGHEAPVYSVCPHYKENIQFIFSTALDGKIKAWLYDNMGSRVDYDAPGRWCTTMAYSADGTRLFSCGTSKDGESFIVEWNESEGAVKRTYQGFHKRSLGVVQFDTTKNRYLAAGDDFSIKFWDMDAVQLLTAIDGDGGLQASPRIRFNKEGSLLAVSGNENVIKIMANSDGLRLLHTFENISSESSKPAINSIAAAAAAAATSAGHADRSANVVSIQGMNGDSRNMVDVKPVITEESNDKSKIWKLTEVSEPSQCRSLRLPENLRVAKISRLIFTNSGNAILALASNAIHLLWKWQRNERNATGKATASLPPQQWQPASGILMTNDVAETNPEEAVPCFALSKNDSYVMSASGGKISLFNMMTFKTMATFMPPPPAATFLAFHPQDNNIIAIGMDDSTIQIYNVRVDEVKSKLKGHSKRITGLAFSNVLNVLVSSGADAQLCVWNTDGWEKQRSKVLPLPQGRPNSAPSDTRVQFHQDQAHFLVVHETQLAIYETTKLECMKQWAVRESLAPITHATFSCDSQLVYASFMDATVCVFSSANLRLRCRVNPSAYLPASLSNSNVHPLVIAAHPQEPNMFAVGLSDGGVHIFEPLESEGKWGVAPPAENGSASGAPTAPSVGASASDQPQR | – |

The remaining lines, values behind:

| Molecule | binding [%] (FRET-FLIM) [2] | binding [%] (BiFC-FRET) [5] | binding [%] (FRET-FLIM) [6] | binding [%] (BiFC-FRET) [7] | also measured |
| --- | --- | --- | --- | --- | --- |
| BES1D-mCh (BRI1-EMS-SUPPRESSOR 1, BES1D form, fused to mCherry) (from UniProt Q9LN63 1-335) (natural protein) | 27.4% | – | – | – | binding [%] (BiFC-FRET) [1]: 18.7% |
| PLT3-mCh (PLETHORA 3 fused to mCherry) (natural protein, Arabidopsis thaliana, UniProt Q52QU2 1-581, looked up) MMAPMTNWLTFSLSPMEMLRSSDQSQFVSYDASSAASSSPYLLDNFYGWSNQKPQEFFKEEAQLAAAASMADSTILTTFVDPQSHHSQNHIPKLEDFLGDSSSIVRYSDNSQTDTQDSSLTQIYDPRHHHNQTGFYSDHHDFKTMAGFQSAFSTNSGSEVDDSASIGRTHLAGDYLGHVVESSGPELGFHGGSTGALSLGVNVNNNTNHRNDNDNHYRGNNNGERINNNNNNDNEKTDSEKEKAVVAVETSDCSNKKIADTFGQRTSIYRGVTRHRWTGRYEAHLWDNSCRREGQARKGRQGGYDKEDKAARAYDLAALKYWNATATTNFPITNYSKEVEEMKHMTKQEFIASLRRKSSGFSRGASIYRGVTRHHQQGRWQARIGRVAGNKDLYLGTFATEEEAAEAYDIAAIKFRGINAVTNFEMNRYDVEAIMKSALPIGGAAKRLKLSLEAAASSEQKPILGHHQLHHFQQQQQQQQLQLQSSPNHSSINFALCPNSAVQSQQIIPCGIPFEAAALYHHHQQQQQHQQQQQQQNFFQHFPANAASDSTGSNNNSNVQGTMGLMAPNPAEFFLWPNQSY | – | – | – | – | binding [%] (FRET-FLIM) [3]: 13.5 ± 4.3%; binding [%] (FRET-FLIM) [4]: 16.9% |
| BRAVO-mCh (BRAVO fused to mCherry) (natural protein, Arabidopsis thaliana, UniProt Q6R053 1-323, looked up) MNPNLLEKDLRGKETTNGSIRYKEANNFRSLPNSHTAACKTSLNNPSISRNHPHNKSASVLESEDEHGNERGENEKSLRMRGKSGINTKVCSRGHWRPTEDAKLKELVAQFGPQNWNLISNHLLGRSGKSCRLRWFNQLDPRINKRAFTEEEEFRLLAAHRAYGNKWALISRLFPGRTDNAVKNHWHVIMARRTRESQRQRQQPPPTLSRDAEMTVSSSCRYNQGKFINEEDDDDDVSAVSTCTTELSLTPPSSAYQPRFFNYDSTLASGKDGQCVQRAEVNGIYGKKMDHQNHHTISVSERKVEMKMRSGYYYFDFLGVGAS | – | 36.3 ± 10.7% | – | – | – |
